Among the data in US6365158 are absorbance (ELISA) (absorbance values, retold here.

In assay [1] the target is Crotalus durissus terrificus (C.d.t.) venom. Briefly: ELISA, C.d.t. venom-coated wells, IgY 1:62,500.
Assay [2] has the same target. Put plainly: ELISA, C.d.t. venom-coated wells, 1:3125.
Assay [3] shares this target. Put plainly: ELISA, wells coated with 5 µg/ml C.d.t. venom, 1:625. A general note: An ELISA detects its analyte on a solid surface through an enzyme-linked reagent.
For assay [4] the target is unchanged. Briefly: ELISA, wells coated with 5 µg/ml C.d.t. venom, 1:5.
Assay [5] shares this target. Briefly: ELISA, wells coated with 5 µg/ml C.d.t. venom, 1:125.
The target is the same in assay [6]. Put plainly: ELISA, C.d.t. venom-coated wells, 1:25.
Assay [7] has the same target. Put plainly: ELISA, wells coated with 5 µg/ml C.d.t. venom, undiluted.
Assay [8] has the same target. Briefly: ELISA, C.d.t. venom-coated wells, 1:125.
For assay [9] the target is unchanged. Briefly: ELISA, C.d.t. venom-coated wells, 1:625.
Assay [10] shares this target. Put plainly: ELISA, wells coated with 5 µg/ml C.d.t. venom, 1:3125.
Assay [11] shares this target. Put plainly: ELISA, wells coated with 5 µg/ml C.d.t. venom, 1:25.
Assay [12] shares this target. Briefly: ELISA, C.d.t. venom-coated wells, IgY 1:312,500.
Assay [13] has the same target. Briefly: ELISA, C.d.t. venom-coated wells, 1:5.

In the case of preimmune IgY (antibody), the absorbance (ELISA) (absorbance at 412 nm) in assay [1] is 0.001; in [2], under 0; in assay [3], 0; in [4], under 0; in assay [5], 0.003; in [6], 0.016. Also, the absorbance (ELISA) (absorbance at 412 nm) in assay [7] is 0.003; in assay [8], under 0; in assay [9], under 0; in [10] it was 0.002; in assay [11] it was 0; in assay [12], 0.01. This substance showed an absorbance (ELISA) (absorbance at 412 nm) in assay [13] of under 0.
